Earlier results on one substance are cited in article PMC5512170.

A word on the Kd: it is a measure of binding affinity in units of concentration.

In the data set the target is SNX27 PDZ (Homo sapiens) (UniProt Q96L92). The data set is described as follows: fluorescence polarization. A general note: Polarisation of emitted light reports the rotation of a fluorescent probe.

As for ß2-AR tail C-tail (from UniProt P07550), the Kd is 17 µM.
